Results as given in US20090191117A1.
One block for each substance: values may come before it.

Legend:
[1] = target: αvβ3 and αvβ5 integrins on A375S2 human melanoma cells (human) (UniProt P06756); assay: cell-based or functional assay
[2] = target: αVβ3 and αVβ5 integrins on M21 human melanoma cells (human) (UniProt P06756); assay: 125-I antibody saturation binding to M21 cells, n = 8
[3] = target: αvβ3 and αvβ5 integrins on A375S2 human melanoma cells (human) (UniProt P06756); assay: 125-I antibody saturation binding to A375S2 cells, n = 7
[4] = target: αvβ3 and αvβ5 integrins on A375S2 human melanoma cells (human) (UniProt P06756); assay: radiolabelled antibody binding to A375S2 cells, n = 2
[5] = target: αVβ3 and αVβ5 integrins on M21 human melanoma cells (human) (UniProt P06756); assay: radiolabelled antibody binding to M21 cells, n = 2
[6] = target: αvβ5 integrin on HT-29 human colon carcinoma cells (human) (UniProt P06756); assay: radiolabelled antibody binding to HT-29 cells, n = 1
Chain of αvβ5 integrin on HT-29 human colon carcinoma cells (human) (P06756 31-1048, chain 1 of 2): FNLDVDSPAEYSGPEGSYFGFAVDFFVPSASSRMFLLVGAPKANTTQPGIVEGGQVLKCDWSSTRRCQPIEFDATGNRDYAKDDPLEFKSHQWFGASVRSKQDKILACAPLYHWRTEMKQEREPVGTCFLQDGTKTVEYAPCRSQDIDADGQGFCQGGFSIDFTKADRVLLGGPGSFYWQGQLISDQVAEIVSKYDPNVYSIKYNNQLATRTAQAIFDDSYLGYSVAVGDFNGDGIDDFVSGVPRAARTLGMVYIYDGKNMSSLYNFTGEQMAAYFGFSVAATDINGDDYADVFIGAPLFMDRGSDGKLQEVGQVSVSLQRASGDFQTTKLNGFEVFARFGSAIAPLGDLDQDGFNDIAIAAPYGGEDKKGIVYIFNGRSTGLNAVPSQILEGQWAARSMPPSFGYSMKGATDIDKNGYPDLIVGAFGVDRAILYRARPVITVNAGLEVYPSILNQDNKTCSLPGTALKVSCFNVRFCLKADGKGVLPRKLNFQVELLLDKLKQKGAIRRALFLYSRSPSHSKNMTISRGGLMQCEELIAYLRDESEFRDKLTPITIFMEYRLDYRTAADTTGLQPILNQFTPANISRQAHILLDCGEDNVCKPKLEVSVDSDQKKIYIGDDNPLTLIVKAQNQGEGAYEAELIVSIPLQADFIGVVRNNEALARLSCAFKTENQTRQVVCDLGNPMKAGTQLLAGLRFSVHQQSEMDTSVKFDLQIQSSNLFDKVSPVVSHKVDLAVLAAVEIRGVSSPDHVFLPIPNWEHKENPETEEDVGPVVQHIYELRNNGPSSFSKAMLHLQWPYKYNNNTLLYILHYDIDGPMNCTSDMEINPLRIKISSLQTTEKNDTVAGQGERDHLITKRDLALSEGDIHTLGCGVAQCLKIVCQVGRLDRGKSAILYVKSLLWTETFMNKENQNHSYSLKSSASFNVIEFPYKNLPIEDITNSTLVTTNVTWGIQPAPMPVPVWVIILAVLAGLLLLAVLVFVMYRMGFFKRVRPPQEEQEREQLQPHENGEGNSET
Chain of αvβ5 integrin on HT-29 human colon carcinoma cells (human) (P18084 24-799, chain 2 of 2, further chain): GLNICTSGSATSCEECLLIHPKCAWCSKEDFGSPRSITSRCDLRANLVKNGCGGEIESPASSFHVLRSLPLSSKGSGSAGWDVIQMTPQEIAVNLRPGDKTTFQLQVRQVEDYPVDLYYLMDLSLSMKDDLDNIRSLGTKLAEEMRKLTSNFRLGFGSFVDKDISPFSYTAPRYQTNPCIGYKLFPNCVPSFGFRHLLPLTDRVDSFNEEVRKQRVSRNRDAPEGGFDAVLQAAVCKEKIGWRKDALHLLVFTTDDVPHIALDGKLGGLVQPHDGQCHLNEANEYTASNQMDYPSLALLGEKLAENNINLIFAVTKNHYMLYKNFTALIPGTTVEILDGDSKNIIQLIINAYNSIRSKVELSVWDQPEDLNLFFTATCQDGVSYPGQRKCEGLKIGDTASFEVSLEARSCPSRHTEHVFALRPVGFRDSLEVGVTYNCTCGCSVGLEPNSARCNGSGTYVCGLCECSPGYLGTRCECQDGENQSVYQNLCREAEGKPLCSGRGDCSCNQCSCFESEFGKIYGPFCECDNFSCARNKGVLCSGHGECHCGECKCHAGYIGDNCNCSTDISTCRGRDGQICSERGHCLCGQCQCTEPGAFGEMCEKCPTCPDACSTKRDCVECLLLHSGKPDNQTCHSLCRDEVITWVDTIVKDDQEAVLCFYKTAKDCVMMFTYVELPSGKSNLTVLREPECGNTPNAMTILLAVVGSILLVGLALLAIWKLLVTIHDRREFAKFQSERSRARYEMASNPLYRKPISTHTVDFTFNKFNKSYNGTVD

[7] = target: αvβ3 and αvβ5 integrins on A375S2 human melanoma cells (human) (UniProt P06756); assay: radiolabelled antibody binding to A375S2 cells, n = 4
[8] = target: αVβ3 and αVβ5 integrins on M21 human melanoma cells (human) (UniProt P06756); assay: 125-I Fab saturation binding to M21 cells, n = 7
[9] = target: αvβ3 and αvβ5 integrins on A375S2 human melanoma cells (human) (UniProt P06756); assay: 125-I Fab saturation binding to A375S2 cells, n = 6

Chain of αvβ3 and αvβ5 integrins on A375S2 human melanoma cells (human) (P06756 31-1048 A375S, chain 1 of 3): as the sequence (P06756 31-1048, chain 1 of 2) above, with A345S counted along it
Chain of αvβ3 and αvβ5 integrins on A375S2 human melanoma cells (human) (P05106 27-788, chain 2 of 3, further chain): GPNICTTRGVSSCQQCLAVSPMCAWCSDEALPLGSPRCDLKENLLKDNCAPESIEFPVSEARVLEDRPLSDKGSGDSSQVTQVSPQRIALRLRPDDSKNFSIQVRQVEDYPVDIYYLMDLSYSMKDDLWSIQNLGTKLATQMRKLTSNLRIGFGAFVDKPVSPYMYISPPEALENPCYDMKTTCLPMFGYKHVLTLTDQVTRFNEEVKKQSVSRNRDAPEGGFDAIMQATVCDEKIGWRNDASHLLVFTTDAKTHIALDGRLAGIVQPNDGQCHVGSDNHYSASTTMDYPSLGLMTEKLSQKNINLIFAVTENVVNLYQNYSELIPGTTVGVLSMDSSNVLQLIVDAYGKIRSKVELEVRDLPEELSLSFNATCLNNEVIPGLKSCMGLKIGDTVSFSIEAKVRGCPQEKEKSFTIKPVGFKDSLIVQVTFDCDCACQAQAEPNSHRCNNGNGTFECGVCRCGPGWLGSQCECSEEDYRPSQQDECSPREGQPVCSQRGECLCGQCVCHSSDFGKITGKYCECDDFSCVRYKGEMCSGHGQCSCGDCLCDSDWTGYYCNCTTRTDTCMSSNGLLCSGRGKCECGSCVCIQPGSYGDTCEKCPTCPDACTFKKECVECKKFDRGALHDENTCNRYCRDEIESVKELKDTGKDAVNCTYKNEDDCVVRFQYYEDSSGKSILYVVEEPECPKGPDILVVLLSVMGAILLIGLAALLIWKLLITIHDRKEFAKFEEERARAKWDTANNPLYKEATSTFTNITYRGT
Chain of αvβ3 and αvβ5 integrins on A375S2 human melanoma cells (human) (P18084 24-799, chain 3 of 3, further chain): as the sequence (P18084 24-799, chain 2 of 2, further chain) above

A375S.2 cell adhesion to fibrin, percent of adhesion without antibody, antibody at 10 µg/ml [1]: 43.3% | A375S.2 cell adhesion to fibrinogen, percent of adhesion without antibody, antibody at 10 µg/ml [1]: 11.4% | A375S.2 cell adhesion to gelatin, percent of adhesion without antibody, antibody at 10 µg/ml [1]: 23.2% | A375S.2 cell adhesion to vitronectin, percent of adhesion without antibody, antibody at 10 µg/ml [1]: 1.4% | Receptors per cell (receptors per cell) [2]: 200000 | Receptors per cell (receptors per cell) [3]: 120000
Substance: CNTO 95 (antibody)

Receptors per cell (receptors per cell) [4]: 300000
Substance: LM609 (antibody)

Receptors per cell (receptors per cell) [5]: 44000 | Receptors per cell (receptors per cell) [6]: 73000 | Receptors per cell (receptors per cell) [7]: 70000
Substance: P1F6 (antibody)

Receptors per cell (receptors per cell) [8]: 660000 | Receptors per cell (receptors per cell) [9]: 370000
Substance: ReoPro (c7E3 Fab)
